In publication doi:10.1101/239830:

Columns and labels:
Test in all cases: fluorescence polarisation
[1] = target: V1rb2-2 peptide derived from vomeronasal receptor V1RB2
[2] = target: V1rb2-1 peptide derived from vomeronasal receptor V1RB2
[3] = target: OR-1 peptide derived from olfactory receptor OLFR1507

Kd [1]: 6.1 µM
Kd [2]: 6.6 µM
Kd [3]: 250 µM
Substance: PERK LD as used in the fluorescence anisotropy assays (domain or fragment)
